According to the supplement of paper PMC10724198:
± gives the standard deviation of the averaged measurements.

Test system: Saccharomyces cerevisiae
Assay: protein stability index of tFT-peptide fusion (C-terminal peptide) (PSI (0-1 scale)); higher = more stable (slower turnover)
Conditions: genetic background: wild type; temperature: 30 C
Method: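 Multiplexed protein stability (MPS) profiling in S. cerevisiae. Random 12-aa peptides (tFT-X12 library) are fused to the C-terminus of a sfGFP-mCherry tandem fluorescent timer, after mCherry and a GGGS linker. Cells are FACS-sorted into 8 mCherry/sfGFP bins and deep-sequenced. The protein stability index (PSI) is the read-weighted bin average, scaled from 0 (unstable) to 1 (stable). Only peptides with >10 reads are reported; cells were grown at 30 °C in SC-His with glucose.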
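Note: PSI is a weighted mean of sequencing reads over stability bins, variants kept only with over 10 reads, mCherry proximal and sfGFP distal, peptide attached via GGGS linker.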

| Sequence | protein stability index |
| --- | --- |
| VCTRACFLFAYP | 0.582 ± 0.015 |
| KKKKKKNKKKTQ | 0.734 ± 0.04 |
| IYRWSGTVGGER | 0.6971 ± 0.003 |
| PPVAPTPFPPPS | 0.684 ± 0.018 |
| SRFHVLLPPPPS | 0.674 ± 0.035 |
| LCVWFGGLGLVG | 0.69 ± 0.019 |
| FIVPLFPVFFSS | 0.621 ± 0.05 |
| ELASLSPCCMGM | 0.762 ± 0.15 |
| KGANISDCLSIF | 0.616 ± 0.018 |
| VRCWEDGFLDSS | 0.7293 ± 0.0042 |
| LPSPPPPRSLLP | 0.6657 ± 0.0016 |
| KFKREKKKINKR | 0.6938 ± 0.0023 |
| VLSLLPSLLPPF | 0.7408 ± 0.0061 |
| GGLAWSMSGCVG | 0.691 ± 0.076 |
| PPPPPLGPLPAL | 0.688 ± 0.012 |
| EVWSYCPAFFVD | 0.736 ± 0.016 |
| FVPPPVVPPFPL | 0.716 ± 0.017 |
| VGAAVFGARWGA | 0.689 ± 0.037 |
| PSPGPPLPPPLF | 0.7625 ± 0.0075 |
| VSGGRQVGWGGW | 0.686 ± 0.011 |
| PPLSPPPLPAAP | 0.724 ± 0.03 |
| VGGWGGFGLFFP | 0.742 ± 0.098 |
| VLCKDGHRGFGC | 0.589 ± 0.057 |
| IWRLLLPLPNPF | 0.688 ± 0.019 |
| EVVEDGAEEVGR | 0.685 ± 0.053 |

| Sequence | protein stability index |
| --- | --- |
| ADAKVGVIWVAL | 0.628 ± 0.08 |
| PTRRPDGQLHPS | 0.6707 ± 0.0027 |
| SLLLALPSLPLS | 0.553 ± 0.18 |
| CANFIGAVPGSV | 0.686 ± 0.011 |
| PPLSPPPSASSS | 0.738 ± 0.065 |
| KKYIEKKFNIQK | 0.664 ± 0.03 |
| PPPPRSPPLPRL | 0.743 ± 0.061 |
| VCRRSVLHSCWS | 0.678 ± 0.0097 |
| FVILTPFYLTFH | 0.51 ± 0.033 |
| KKKKKNTKVYNE | 0.703 ± 0.13 |
| SLSWIGLYCCGL | 0.717 ± 0.051 |
| FEVRLRCLGYSG | 0.718 ± 0.015 |
| SKWGQIKRVAIR | 0.592 ± 0.038 |
| LSPPPPRPTLQF | 0.731 ± 0.0092 |
| DIERRMEVINNG | 0.696 ± 0.032 |
| KHYKVDAVNIRG | 0.686 ± 0.035 |
| VGGGEVRAWGLR | 0.661 ± 0.008 |
| LGRAGMWTRRGL | 0.663 ± 0.034 |
| VSRLTVIPAVQT | 0.652 ± 0.027 |
| FLFCWGCCRLFW | 0.581 ± 0.1 |
| SLVNDLFFLFFY | 0.523 ± 0.069 |
| LPASPSIAPPPT | 0.636 ± 0.06 |
| VGAPGGVETTKA | 0.685 ± 0.015 |
| VGTGPGLKRPCH | 0.774 ± 0.035 |
| PPRLRSPTPFLL | 0.755 ± 0.027 |

| Sequence | protein stability index |
| --- | --- |
| GAFRLGSIVGVP | 0.735 ± 0.032 |
| KKDRRGGGPGGG | 0.691 ± 0.03 |
| GLDRCFTSFYSI | 0.702 ± 0.059 |
| RIGKKKRYNEKS | 0.751 ± 0.062 |
| VQQSRTQKDQHV | 0.623 ± 0.054 |
| SPKCIVASFVVS | 0.675 ± 0.028 |
| WIPITSDKCNFK | 0.709 ± 0.06 |
| EDILWADVPYSK | 0.759 ± 0.039 |
| TPAIPTTLMSLR | 0.67 ± 0.063 |
| AVGWQRQTEQRR | 0.684 ± 0.088 |
| CCGHEFEIYNWV | 0.786 ± 0.1 |
| QMKDGKTQKWQE | 0.569 ± 0.048 |
| TFPGRLPLTRLP | 0.726 ± 0.038 |
| THYKLFGSLNLL | 0.634 ± 0.035 |
| ALGVGLDEILVM | 0.556 ± 0.0093 |
| GRCRALVARGGH | 0.76 ± 0.2 |
| KTPAAVPWTRER | 0.693 ± 0.013 |
| GLGEGLVCFLLG | 0.73 ± 0.056 |
| PAFVPPFTPATP | 0.76 ± 0.033 |
| VWCWCGWGVWGL | 0.629 ± 0.063 |
| KNNKKQRNRTGE | 0.669 ± 0.017 |
| SWPPCPSGRGRG | 0.727 ± 0.029 |
| GWAGGEGWRGEG | 0.6964 ± 0.0062 |
| PLYHPSESYNPA | 0.678 ± 0.016 |
| PTPPSARAPPTT | 0.686 ± 0.032 |

| Sequence | protein stability index |
| --- | --- |
| PPPRLPPPPHAL | 0.795 ± 0.044 |
| WGGASIGMGFGA | 0.743 ± 0.036 |
| VPCLVHEVYDEV | 0.732 ± 0.029 |
| VLFLLSGPAILL | 0.682 ± 0.0075 |
| GNVAMRKNIIGL | 0.674 ± 0.057 |
| PSPPVPPLPPVF | 0.55 ± 0.032 |
| LGKVAGLGAGRP | 0.719 ± 0.034 |
| MKKIGNKLKKEK | 0.657 ± 0.099 |
| FVAPPLCMPLSR | 0.704 ± 0.04 |
| KEELKKRRQEAK | 0.677 ± 0.012 |
| LLRRFSLLPPPL | 0.667 ± 0.035 |
| DGGHSFLSVARG | 0.644 ± 0.04 |
| CWCRVGSSGCVR | 0.668 ± 0.039 |
| ENIENGRPKTEP | 0.644 ± 0.012 |
| GYPLRSHCLIVD | 0.68 ± 0.0081 |
| SPPPLPTAPPPL | 0.713 ± 0.066 |
| KSKDKGEGKELK | 0.694 ± 0.088 |
| WRNTGSTYYMKV | 0.723 ± 0.015 |
| RVNQRRATSEKT | 0.677 ± 0.0082 |
| PSPGPPHPPPLF | 0.713 ± 0.063 |
| PLPPPPPPPSPS | 0.835 ± 0.11 |
| KCDLTREDVVHR | 0.657 ± 0.01 |
| SPPRSPPTFPPC | 0.704 ± 0.063 |
